Experimental data published in patent US20220281965A1 (AstraZeneca / MedImmune, published 2022).
Substitutions are numbered along the chain they refer to. One block for each binder: values may come before it.

Experiments:
mature human GDF-15 = target: T1, mature human GDF-15 (human, UniProt Q99988 197-308); assay: HTRF epitope competition; competitor DyLight 650 labelled Antibody A; Europium labelled human GDF-15
T1 construct: Homodimer; also called hGDF-15; recombinant hu-GDF15
T1 sequence: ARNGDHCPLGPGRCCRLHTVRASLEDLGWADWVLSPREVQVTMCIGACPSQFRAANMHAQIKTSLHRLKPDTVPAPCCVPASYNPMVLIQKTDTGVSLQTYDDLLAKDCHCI
Text: Antibodies from the immunizations with human GDF-15, in the form of crude supernatants from the immunization or in the form of purified IgGs, were chosen on the basis that they bind and compete with an epitope recognized by a control anti-GDF-15 antibody “Antibody A”. A biochemical epitope competition format was applied using an HTRF epitope competition assay that measured the binding of DyLight 650 labelled Antibody A to Europium labelled human GDF-15 (Prospec). In the absence of Antibody A binding, there is no detectable FRET fluorescence. When Antibody A binds to GDF-15, the resulting physical proximity between the secondary reagent donor/acceptor pair results in FRET. Competition with an antibody that recognizes the same or similar epitope will result in a dose dependent reduction of the FRET signal. FRET was measured ratiometrically [665 nm (acceptor)/620 nm (donor)] on an Envision plate reader, and IC₅₀ values were determined by curve fitting the data to a four parameter logistic equation using PRISM 6® software (Graphpad).

[1] = target: T2, biotinylated cynomolgus GDF-15 (cynomolgus, UniProt G7PWZ3 197-308, biotinylated, sites not stated); assay: HTRF binding assay, biotinylated antigen, titration of antibody
T2 construct: also called Cyno GDF-15
T2 sequence: T1 sequence with H6R, R21H, A54E, T63M, S64N, I112V
Text: (§1) Supernatants generated from the immunizations with human GDF-15 and purified IgGs were screened to identify IgGs with specific binding to human, cynomolgus, or mouse GDF-15. The HTRF (Homogeneous Time Resolved Fluorescence) assay is based on detection of a measurable FRET signal upon binding of a titration of test antibody to biotinylated human H202D GDF-15 variant, cynomolgus GDF-15 and mouse GDF-15. Europium cryptate (EuK) labelled Streptavidin and anti-human IgG XL665 (Cis Bio) were used as secondary detection reagents serving as energy donor and acceptor respectively. In the absence of test antibody binding, there is no detectable FRET fluorescence. When test antibody binds to GDF-15, the resulting physical proximity between the secondary reagent donor/acceptor pair results in FRET. FRET was measured ratiometrically [665 nm (acceptor)/620 nm (donor)] on an Envision plate reader, and data plotted using PRISM 6® software (Graphpad).

[2] = target: T3, biotinylated human H202D GDF-15 variant (human, UniProt Q99988 197-308, biotinylated, sites not stated); assay: as above
T3 construct: also called Human GDF-15 H202D
T3 chain: T1 sequence with H6D
Text: as §1

mouse GDF-15 = target: T4, mouse GDF-15 (mouse, UniProt Q9Z0J7 189-303); assay: as above
T4 construct: also called mGDF-15
T4 sequence: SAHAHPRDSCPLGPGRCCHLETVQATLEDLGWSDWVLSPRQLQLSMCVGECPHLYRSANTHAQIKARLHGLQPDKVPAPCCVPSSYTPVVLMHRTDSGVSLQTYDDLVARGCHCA
Text: as §1

- IC50 (mature human GDF-15): 1.95 nM
- binding result [1]: binds
- binding result [2]: binds
- binding result (mouse GDF-15): binds
B1: AB1170043 (antibody, V domains shown)
VH: QVTLKESGPGILQSSQTLSLTCSFSGFSLITSGLGVSWIRQPSGKGLEWLAHIYWDDDKRYNPSLKSRLTISKDTSRNQVFLKITSVDTADTATYYCARGGYDGYYDYWGQGTTLTVSS
VL: DVVMTQTPLSLPVSLGDQASISCRSSQSIVHSNGNTNLEWYLQKPGQSPKLLIYKVSNRLSGVPDRFSGSGSGTDFTLKISRVEAEDLGVYYCFQGSHVRTFGGGTKLEIK

- IC50 (mature human GDF-15): 1.11 nM
- binding result [1]: binds
- binding result [2]: binds
- binding result (mouse GDF-15): binds
B2: AB1170086 (antibody, V domains shown)
VH: B1 VH with I30S, L34M, K66E, A90T
VL: B1 VL with F76S

- IC50 (mature human GDF-15): 0.485 nM
- binding result [1]: binds
- binding result [2]: binds
- binding result (mouse GDF-15): binds
B3: AB1170028 (antibody, V domains shown)
VH: DVKLVESGEGLVKPGGSLKLSCAASGFTFSSFAMSWVRQTPEKRLEWVAYITSGGDYIFYADTVKGRFTISRDNARNTLYLQMSSLKSEDTAMYYCTRDDGYLWFAYWGQGTLVTVSA
VL: SIVMTQTPKFLPVSAGDRVTMTCKASQNVGNNVAWYQQKPGQSPKLLIYYASNRYTGVPDRFTGSGSGTDFTFTISSVQVEDLAVYFCQQHYSSPLTFGAGTKLELK

- IC50 (mature human GDF-15): 1.36 nM
- binding result [1]: binds
- binding result [2]: binds
- binding result (mouse GDF-15): binds
B4: AB1170047 (antibody, V domains shown)
VH: QVQLQQSGPELVKPGASVKLSCKASGYTFTSYDINWVKQRPGQGLEWIGWIYPRDGISKYNEKFKGKATLTVDTSSSTAYMELHSLTSEDSAVYFCAGTYDPAYFDYWGQGTTLTVSS
VL: DIVLTQSPATLSVTPGDRVSLSCRASQSISYYLHWYQQKSHESPRLLIKYASQSISGIPSRFSGSGSGTDFTLSINSVETEDFGMYFCQQSNSWPYTFGGGTKLEIK

- IC50 (mature human GDF-15): 0.759 nM
- binding result [1]: binds
- binding result [2]: binds
- binding result (mouse GDF-15): binds
B5: AB1170069 (antibody, V domains shown)
VH: B4 VH with K65E, Y100S
VL: B4 VL

- IC50 (mature human GDF-15): 0.622 nM
- binding result [1]: binds
- binding result [2]: binds
- binding result (mouse GDF-15): binds
B6: AB1170036 (antibody, V domains shown)
VH: DVKLVESGEGLVKPGGSLKLSCAASGFTFSSYAMSWVRQTPEKRLEWVAYISSGGDNIYYADTVKGRFTISRDNARNTLYLQMSSLKSEDTAMYYCTRALVENAYFDYWGQGTTLTVSS
VL: DSVLTQSPASLLVSLGQRATISCRASKSVSTSTYSYMHWYQQKPGQPPKLLIKYASYLESGVPARFSGSGSGTDFTLNIHPVEEEDAATYYCQHSREFPWTFGGGTKLEIK

- IC50 (mature human GDF-15): 1.42 nM
- binding result [1]: binds
- binding result [2]: binds
- binding result (mouse GDF-15): binds
B7: AB1170040 (antibody, V domains shown)
VH: B6 VH with N57Y, E102D
VL: B6 VL with S2I, L12A, T33S, S60F

- IC50 (mature human GDF-15): 6.83 nM
- binding result [1]: binds
- binding result [2]: binds
- binding result (mouse GDF-15): binds
B8: AB1170070 (antibody, V domains shown)
VH: EVQLQQSGPELVKPGASVKIPCKASGYTFTDYNMDWVKQSHGKSLEWIGDINPYNGITIYNQKFKGKATLTVDKSSSTAYMELRSLTSEDTAVYYCAREEKLGTSFDYWGQGTTLTVSS
VL: DIQMTQSPASLSASVGETVTITCRASENIYSNLAWYQQKQGKSPQLLVYAATNLADGVPSRFSGSGSGTQFSLKINSLQPEDFGSYYCQHFYGTPWTFGGGTKLEIK

- IC50 (mature human GDF-15): 97.1 nM
- binding result [1]: binds
- binding result [2]: binds
- binding result (mouse GDF-15): binds
B9: AB1170006 (antibody, V domains shown)
VH: B8 VH with Y54N, I57V, Y94F, K101L, L102T, T104N, S105A, F106M, T114S, L115V
VL: B8 VL with A13V, N32H, F71Y, P80S, Y92W

- IC50 (mature human GDF-15): 68.3 nM
- binding result [1]: binds
- binding result [2]: binds
- binding result (mouse GDF-15): binds
B10: AB1170148 (antibody, V domains shown)
VH: QVQLQQPGAELVRPGTSVKLSCKASGYTFTSYWMHWVKQRPRQGLEWIGLIDPSDNYTNYNQNFKGKATLTVDTSSSTAYMQLGSLTSEDSAVYYCASYDGYSTPSAMDYWGQGTSVTVSS
VL: QIVLSQSPAILSASPGEKVTMTCRASSSVNYMHWYQQKPGSSPKPWIYATSNLASGVPARFSGSGSGTSYSLIISRVEAEDAAAYYCQQWSSYPPTFGGGTKLEIK

- IC50 (mature human GDF-15): 0.758 nM
- binding result [1]: binds
- binding result [2]: binds
- binding result (mouse GDF-15): binds
B11: AB1170010 (antibody, V domains shown)
VH: QVTLKESGPGILQPSQTLSLTCSFSGFSLSTYGMGVGWIRQPSGKGLEWLANIWWNDDKYYNSALKSRLTISKDTSNNQVFLKISSVDTADTATYYCAQEVYGWFAYWGQGTLVTVSS
VL: DIVMTQSQKFMSTSVGDRVSVTCKASQNVGTNVAWYQQKPGQSPKALIYSASYRYSGVPDRFTGSGSGTDFTLTISNVQSEDLAEYFCQQYNSYPLTFGGGTKLEIK

- IC50 (mature human GDF-15): 2.11 nM
- binding result [1]: binds
- binding result [2]: binds
- binding result (mouse GDF-15): binds
B12: AB1170073 (antibody, V domains shown)
VH: QVTLKESGPGILQPSQTLSLTCSFSGFSLSTFGMGVGWIRQPSGKGLEWLAHIWWDDDKYYNPALKSRLTISKDTSKNQVFLKIANVDTADTATYYCARIAYDGYLDYWGQGTTLTVSS
VL: B11 VL with N32D, A46S, L96Y

- IC50 (mature human GDF-15): 0.693 nM
- binding result [1]: binds
- binding result [2]: binds
- binding result (mouse GDF-15): binds
B13: AB1170072 (antibody, V domains shown)
VH: B11 VH with E100M, V101A, G103S
VL: B11 VL with V29M, G30D, L96F, G100S
